Measured values as given in US20190330333A1 (KAO, published 2019).
Where no end group is shown, it is not given here.

Assays:
[1] = biological target: T1, PEGylated N-terminus 15 amino acids of active GIP (GIP(1-15)), antigen (1) for measurement (also: PEGylated, position not given here); test: ELISA, immobilized peptide antigen, hybridoma culture supernatant
T1 construct: Immobilized on the ELISA plate; The assay antigen carries no KLH; only the immunogen was KLH-linked; also called PEGylated GIP(1-15)
T1 peptide: YAEGTFISDYSIAMD
Description: (§1) The reaction between the hybridoma culture supernatant and the antigen (1) and (2) for measurement was evaluated by ELISA using immobilized antigen (1) and (2), and hybridomas that are positive for the antigen (1) and negative for the antigen (2) were selected as anti-active GIP monoclonal antibody-producing hybridomas.
(§2) Antibody-producing hybridoma was cloned by culturing the hybridomas obtained above through a limiting dilution method to obtain single colonies, and single colony-forming wells were subjected to ELISA again to establish 9B9H5-B9 line, which produces an antibody that is positive for the antigen (1) and negative for the antigen (2) (WO 2016/104439).

[2] = biological target: T2, PEGylated N-terminus 13 amino acids of inactive GIP (GIP(3-15)), antigen (2) for measurement (also: PEGylated, position not given here); test: as above
T2 construct: Immobilized on the ELISA plate; also called PEGylated GIP(3-15)
T2 peptide: EGTFISDYSIAMD
Description: as §1, §2

inactive GIP, GIP(3-42) = biological target: T3, inactive GIP, GIP(3-42); test: sandwich ELISA, anti-total GIP mAb capture, biotinylated antibody at 1 ug/mL as detection
T3 peptide: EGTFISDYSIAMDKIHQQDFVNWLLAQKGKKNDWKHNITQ
Description: (§3) The reactivity between the monoclonal antibody prepared in Production Example 1 and active GIP was confirmed by ELISA. The amino group of the anti-active GIP monoclonal antibody was biotinylated with NH2 group biotinylation kit (manufactured by Dojindo Laboratories). ELISA was performed using the produced biotinylated anti-active GIP monoclonal antibody at 1 μg/mL instead of a detection antibody, GIP detection antibody (biotinylated anti-total GIP monoclonal antibody), included in Human (total) GIP ELISA kit (manufactured by EMD Millipore Corporation). A […] dilution series of GIP(1-42) or GIP(3-42) was prepared in 6 steps (8.2 to 2000 pg/mL) with a 2000 pg/mL solution as the highest concentration. By using an anti-total GIP monoclonal antibody (included in Human GIP (total) ELISA kit manufactured by EMD Millipore Corporation) as a capture antibody, the biotinylated anti-active GIP monoclonal antibody as a detection antibody, and a peroxidase-streptavidin conjugate for detection, sandwich ELISA was conducted to prepare a calibration curve with GIP concentration on the X-axis and 450 nm-590 nm absorbance on the Y-axis (FIG. 1).

active GIP, GIP(1-42) = biological target: T4, active GIP, GIP(1-42); test: sandwich ELISA, anti-total GIP mAb capture, biotinylated antibody at 1 ug/mL as detection, GIP 8.2 to 2000 pg/mL
T4 construct: The assay was built on a Human (total) GIP ELISA kit
T4 peptide: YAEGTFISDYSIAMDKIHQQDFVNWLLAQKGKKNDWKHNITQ
Description: as §3

B1: anti-active GIP monoclonal antibody produced by hybridoma 9B9H5-B9 line (Production Example 1) (antibody, V domains shown)
VH: QVQLQQPGAELVKPGASVKLSCKASGYTFTSFWMHWVIQRPGQGLEWIGEMNPSDGRTHFNEKFKTKATLTIDTSSNTAYMELNSLTSEDSAVYYCARRMEDWGQGTLVTVSA
VL: DIKMTQSPSSMYASLGERVTITCKASQDINSYLGWFQQKPGKSPKTLIYGANRLVDGVPSRFSGSGSGQDYSLTISSLEYDDMGIYYCLQYDEFPLTFGAGTKLELKR
notes: Mouse (BALB/c) hybridoma monoclonal antibody; Culture supernatant was used in the screening and cloning ELISA; also called anti-active GIP antibody
- binding result [1]: binds
- binding result [2]: no binding
- binding result (inactive GIP, GIP(3-42)): no binding
- binding result (active GIP, GIP(1-42)): binds
